Source: patent US20210246166A1 (Bayer, published 2021)
Numbered stars: 1 amine (or outer) side, 2 acyl side, 3 side chain; on linkers, the order of the positions; unused ones are H or OH. Bridge positions count the residues as written; N and C are the ends. Square brackets hold non-standard residues; d marks the D form. Ends that are not written are not given here. * marks the point of attachment. Phe(2,5-F2) = 2,5-difluorophenylalanine, O=C([C@H](Cc1cc(F)ccc1F)N[*:1])[*:2]; X12 = (S)‑(trifluoromethyl)‑L‑cysteine, O=C([C@H](CSC(F)(F)F)N[*:1])[*:2]; (N,N-diMe)A = (N,N-diMe)A, L-N,N-dimethylalanine, C[C@@H](C(=O)*)N(C)C; Oic = O=C(O)[C@@H]1C[C@@H]2CCCC[C@@H]2N1; Phe(2-Cl) = N[C@@H](Cc1ccccc1Cl)C(=O)O; tBuAla = CC(C)(C)C[C@H](N)C(=O)O; Pen = CC(C)(S)[C@H](N)C(=O)O; ΔPro = O=C(O)[C@@H]1C=CCN1; 4Amb = NCc1ccc(C(=O)O)cc1; NMeC = CN[C@@H](CS)C(=O)O; Orn = NCCC[C@H](N)C(=O)O; Abu = CC[C@H](N)C(=O)O; Sar = CNCC(=O)O

T1: Recombinant human MASP1 enzyme (fragment corresponding to amino acids 297-699, C-terminal His Tag) (human, UniProt P48740 297-699)
T1 sequence: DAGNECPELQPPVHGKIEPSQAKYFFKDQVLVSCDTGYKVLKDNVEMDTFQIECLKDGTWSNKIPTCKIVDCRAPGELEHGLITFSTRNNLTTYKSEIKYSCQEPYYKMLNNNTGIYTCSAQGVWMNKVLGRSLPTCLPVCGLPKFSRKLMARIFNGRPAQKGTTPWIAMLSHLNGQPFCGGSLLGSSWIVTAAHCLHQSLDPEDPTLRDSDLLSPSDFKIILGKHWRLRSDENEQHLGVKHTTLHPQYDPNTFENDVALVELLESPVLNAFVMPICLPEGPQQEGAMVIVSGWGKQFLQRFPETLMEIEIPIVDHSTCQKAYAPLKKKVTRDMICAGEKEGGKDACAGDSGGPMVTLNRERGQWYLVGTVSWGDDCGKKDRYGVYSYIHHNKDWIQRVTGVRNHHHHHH


Tests used:
[1] = molecular target: T1, Recombinant human MASP1 enzyme …; assay: cell-based or functional assay
[2] = molecular target: Recombinant human MASP2 enzyme (fragment corresponding to amino acids 297-686, C-terminal His Tag) (human, UniProt O00187 297-686); assay: cell-based or functional assay
Recombinant human MASP2 enzyme (fragment corresponding to amino acids 297-686, C-terminal His Tag), sequence (O00187 other isoform, or with tags, fused parts or gaps limits assumed): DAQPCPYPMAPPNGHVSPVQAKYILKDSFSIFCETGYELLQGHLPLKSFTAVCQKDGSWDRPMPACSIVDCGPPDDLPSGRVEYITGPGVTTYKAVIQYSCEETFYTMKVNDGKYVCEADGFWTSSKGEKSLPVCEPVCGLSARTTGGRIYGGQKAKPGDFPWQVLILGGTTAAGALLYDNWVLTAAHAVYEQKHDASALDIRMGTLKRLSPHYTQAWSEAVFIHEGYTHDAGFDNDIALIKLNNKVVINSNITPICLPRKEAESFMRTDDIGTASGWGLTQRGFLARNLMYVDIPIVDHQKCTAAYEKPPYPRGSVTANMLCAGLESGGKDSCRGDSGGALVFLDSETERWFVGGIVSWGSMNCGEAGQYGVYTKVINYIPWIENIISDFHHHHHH

| Binder | human MASP1 IC50 [1] | human MASP2 IC50 [2] |
| --- | --- | --- |
| [Abu]ICSRSLPPICIPD-NH2 (disulfide 3-11; N-terminus assumed; SMILES CC[C@H](N)C(=O)N[C@H](C(=O)N[C@H]1CSSC[C@@H](C(=O)N[C@H](C(=O)N2CCC[C@H]2C(=O)N[C@@H](CC(=O)O)C(N)=O)[C@@H](C)CC)NC(=O)[C@H]([C@@H](C)CC)NC(=O)[C@@H]2CCCN2C(=O)[C@@H]2CCCN2C(=O)[C@H](CC(C)C)NC(=O)[C@H](CO)NC(=O)[C@H](CCCNC(=N)N)NC(=O)[C@H](CO)NC1=O)[C@@H](C)CC) [(Abu)-IC+SRSLPPIC+IPD-NH2] | 7.2 nM | 300 nM |
| [2‑(Cyclohexylamino)acetyl]ICSRS[tBuAla]PPI[Pen]IPD-NH2 (disulfide 3-11) [(2-(Cyclohexylamino)acetyl)-IC+SRS-((tBu)A)-PPI-(Pen)+IPD-NH2] | 7.1 nM | 200 nM |
| [4Amb]ICSRS[tBuAla]PPI[NMeC]IPD-NH2 (disulfide 3-11; N-terminus assumed; SMILES CC[C@H](C)[C@H](NC(=O)c1ccc(CN)cc1)C(=O)N[C@H]1CSSC[C@@H](C(=O)N[C@H](C(=O)N2CCC[C@H]2C(=O)N[C@@H](CC(=O)O)C(N)=O)[C@@H](C)CC)N(C)C(=O)[C@H]([C@@H](C)CC)NC(=O)[C@@H]2CCCN2C(=O)[C@@H]2CCCN2C(=O)[C@H](CC(C)(C)C)NC(=O)[C@H](CO)NC(=O)[C@H](CCCNC(=N)N)NC(=O)[C@H](CO)NC1=O) [(4-(Aminomethyl)benzoic acid)-IC+SRS-((tBu)A)-PPI-((N-Me)C)+IPD-NH2] | 8.1 nM | 35 nM |
| AICSRSL[(4aR,6aR,9S,11aS)‑11‑Oxo‑2,3,4,4a,6a,7,8,9,11,11a‑decahydro‑1H‑pyrido(3,2-e)pyrrolo(1,2-a)azepine‑9‑carboxylic acid]ICIPD-NH2 (disulfide 3-10) | 8.2 nM | 72.5 nM |
| [Sar]ICSRSLP[Oic]I[Pen]I-NH2 (disulfide 3-11; N-terminus assumed; SMILES CC[C@H](C)[C@H](NC(=O)[C@H]1NC(=O)[C@H]([C@@H](C)CC)NC(=O)[C@@H]2C[C@@H]3CCCC[C@@H]3N2C(=O)[C@@H]2CCCN2C(=O)[C@H](CC(C)C)NC(=O)[C@H](CO)NC(=O)[C@H](CCCNC(=N)N)NC(=O)[C@H](CO)NC(=O)[C@@H](NC(=O)[C@@H](NC(=O)CNC)[C@@H](C)CC)CSSC1(C)C)C(N)=O) [((N-Me)G)-IC+SRSLP-(Oic)-I-(Pen)+I-NH2] | 8.45 nM | 295 nM |
| [(N,N-diMe)A]ICSRS[tBuAla]PPICIPD-NH2 (disulfide 3-11; N-terminus assumed; SMILES CC[C@H](C)[C@H](NC(=O)[C@H](C)N(C)C)C(=O)N[C@H]1CSSC[C@@H](C(=O)N[C@H](C(=O)N2CCC[C@H]2C(=O)N[C@@H](CC(=O)O)C(N)=O)[C@@H](C)CC)NC(=O)[C@H]([C@@H](C)CC)NC(=O)[C@@H]2CCCN2C(=O)[C@@H]2CCCN2C(=O)[C@H](CC(C)(C)C)NC(=O)[C@H](CO)NC(=O)[C@H](CCCNC(=N)N)NC(=O)[C@H](CO)NC1=O) [((N,N-diMe)A)-IC+SRS-((tBu)A)-PPIC+IPD-NH2] | 8.3 nM | 120 nM |
| AICSRS[Phe(2,5-F2)]PPI[NMeC]IPD-NH2 (disulfide 3-11; N-terminus assumed; SMILES CC[C@H](C)[C@H](NC(=O)[C@H](C)N)C(=O)N[C@H]1CSSC[C@@H](C(=O)N[C@H](C(=O)N2CCC[C@H]2C(=O)N[C@@H](CC(=O)O)C(N)=O)[C@@H](C)CC)N(C)C(=O)[C@H]([C@@H](C)CC)NC(=O)[C@@H]2CCCN2C(=O)[C@@H]2CCCN2C(=O)[C@H](Cc2cc(F)ccc2F)NC(=O)[C@H](CO)NC(=O)[C@H](CCCNC(=N)N)NC(=O)[C@H](CO)NC1=O) [AIC+SRS-((2,5-Difluoro)F)-PPI-((N-Me)C)+IPD-NH2] | 7.6 nM | 63 nM |
| [Orn]ICSRSLPPICI-NH2 (disulfide 3-11; N-terminus assumed; SMILES CC[C@H](C)[C@H](NC(=O)[C@@H]1CSSC[C@H](NC(=O)[C@@H](NC(=O)[C@@H](N)CCCN)[C@@H](C)CC)C(=O)N[C@@H](CO)C(=O)N[C@@H](CCCNC(=N)N)C(=O)N[C@@H](CO)C(=O)N[C@@H](CC(C)C)C(=O)N2CCC[C@H]2C(=O)N2CCC[C@H]2C(=O)N[C@@H]([C@@H](C)CC)C(=O)N1)C(N)=O) [(Orn)-IC+SRSLPPIC+I-NH2] | 7.8 nM | 190 nM |
| [Orn]ICSRS[X12]PPI[Pen]IP-NH2 (disulfide 3-11; N-terminus assumed; SMILES CC[C@H](C)[C@H](NC(=O)[C@@H](N)CCCN)C(=O)N[C@H]1CSSC(C)(C)[C@@H](C(=O)N[C@H](C(=O)N2CCC[C@H]2C(N)=O)[C@@H](C)CC)NC(=O)[C@H]([C@@H](C)CC)NC(=O)[C@@H]2CCCN2C(=O)[C@@H]2CCCN2C(=O)[C@H](CSC(F)(F)F)NC(=O)[C@H](CO)NC(=O)[C@H](CCCNC(=N)N)NC(=O)[C@H](CO)NC1=O) [(Orn)-IC+SRS-((S)-(trifluoromethyl)-L-cysteine)-PPI-(Pen)+IP-NH2] | 8.1 nM | 56 nM |
| [Sar]ICSRSLPPI[NMeC]IPD-OH (disulfide 3-11; N-terminus assumed; SMILES CC[C@H](C)[C@H](NC(=O)CNC)C(=O)N[C@H]1CSSC[C@@H](C(=O)N[C@H](C(=O)N2CCC[C@H]2C(=O)N[C@@H](CC(=O)O)C(=O)O)[C@@H](C)CC)N(C)C(=O)[C@H]([C@@H](C)CC)NC(=O)[C@@H]2CCCN2C(=O)[C@@H]2CCCN2C(=O)[C@H](CC(C)C)NC(=O)[C@H](CO)NC(=O)[C@H](CCCNC(=N)N)NC(=O)[C@H](CO)NC1=O) [((N-Me)G)-IC+SRSLPPI-((N-Me)C)+IPD-OH] | 7.3 nM | 1700 nM |

Results, then the binder that gave them:

| human MASP1 IC50 [1] | human MASP2 IC50 [2] | Binder |
| --- | --- | --- |
| 9.3 nM | 64 nM | AICSRSL[ΔPro][Oic]I[Pen]IPD-OH (disulfide 3-11; N-terminus assumed; SMILES CC[C@H](C)[C@H](NC(=O)[C@H](C)N)C(=O)N[C@H]1CSSC(C)(C)[C@@H](C(=O)N[C@H](C(=O)N2CCC[C@H]2C(=O)N[C@@H](CC(=O)O)C(=O)O)[C@@H](C)CC)NC(=O)[C@H]([C@@H](C)CC)NC(=O)[C@@H]2C[C@@H]3CCCC[C@@H]3N2C(=O)[C@@H]2C=CCN2C(=O)[C@H](CC(C)C)NC(=O)[C@H](CO)NC(=O)[C@H](CCCNC(=N)N)NC(=O)[C@H](CO)NC1=O) [AIC+SRSL-(L-dehydroproline)-(Oic)-I-(Pen)+IPD-OH] |
| 7.4 nM | 260 nM | AICSRS[tBuAla]P[Oic]ICIPD-NH2 (disulfide 3-11; N-terminus assumed; SMILES CC[C@H](C)[C@H](NC(=O)[C@H](C)N)C(=O)N[C@H]1CSSC[C@@H](C(=O)N[C@H](C(=O)N2CCC[C@H]2C(=O)N[C@@H](CC(=O)O)C(N)=O)[C@@H](C)CC)NC(=O)[C@H]([C@@H](C)CC)NC(=O)[C@@H]2C[C@@H]3CCCC[C@@H]3N2C(=O)[C@@H]2CCCN2C(=O)[C@H](CC(C)(C)C)NC(=O)[C@H](CO)NC(=O)[C@H](CCCNC(=N)N)NC(=O)[C@H](CO)NC1=O) [AIC+SRS-((tBu)A)-P-(Oic)-I-C+IPD-NH2] |
| 8.1 nM | 130 nM | AICSRS[Phe(2-Cl)]PPI[NMeC]IPD-NH2 (disulfide 3-11; N-terminus assumed; SMILES CC[C@H](C)[C@H](NC(=O)[C@H](C)N)C(=O)N[C@H]1CSSC[C@@H](C(=O)N[C@H](C(=O)N2CCC[C@H]2C(=O)N[C@@H](CC(=O)O)C(N)=O)[C@@H](C)CC)N(C)C(=O)[C@H]([C@@H](C)CC)NC(=O)[C@@H]2CCCN2C(=O)[C@@H]2CCCN2C(=O)[C@H](Cc2ccccc2Cl)NC(=O)[C@H](CO)NC(=O)[C@H](CCCNC(=N)N)NC(=O)[C@H](CO)NC1=O) [AIC+SRS-((2-Chloro)F)-PPI-((N-Me)C)+IPD-NH2] |
| 7.3 nM | 19 nM | [dA]ICSRS[X12]PPI[Pen]IP-NH2 (disulfide 3-11; N-terminus assumed; SMILES CC[C@H](C)[C@H](NC(=O)[C@@H](C)N)C(=O)N[C@H]1CSSC(C)(C)[C@@H](C(=O)N[C@H](C(=O)N2CCC[C@H]2C(N)=O)[C@@H](C)CC)NC(=O)[C@H]([C@@H](C)CC)NC(=O)[C@@H]2CCCN2C(=O)[C@@H]2CCCN2C(=O)[C@H](CSC(F)(F)F)NC(=O)[C@H](CO)NC(=O)[C@H](CCCNC(=N)N)NC(=O)[C@H](CO)NC1=O) [aIC+SRS-((S)-(trifluoromethyl)-L-cysteine)-PPI-(Pen)+IP-NH2] |
| 7.2 nM | 190 nM | AICSRS[tBuAla]P[Oic]I[NMeC]IPD-OH (disulfide 3-11; N-terminus assumed; SMILES CC[C@H](C)[C@H](NC(=O)[C@H](C)N)C(=O)N[C@H]1CSSC[C@@H](C(=O)N[C@H](C(=O)N2CCC[C@H]2C(=O)N[C@@H](CC(=O)O)C(=O)O)[C@@H](C)CC)N(C)C(=O)[C@H]([C@@H](C)CC)NC(=O)[C@@H]2C[C@@H]3CCCC[C@@H]3N2C(=O)[C@@H]2CCCN2C(=O)[C@H](CC(C)(C)C)NC(=O)[C@H](CO)NC(=O)[C@H](CCCNC(=N)N)NC(=O)[C@H](CO)NC1=O) [AIC+SRS-((tBu)A)-P-(Oic)-I-((N-Me)C)+IPD-OH] |
